Reference: publication PMC12208494, “The zinc metalloprotein MigC impacts cell wall biogenesis through interactions with an essential Mur ligase in Acinetobacter baumannii” (PLOS Pathogens, 2025)

What was measured:
[1] = molecular target: MurD (A1S_0245), recombinant, purified (Acinetobacter baumannii); test: enzyme inhibition curve (HPLC assay of MurD activity); 40 nM MurD; Zn-loaded MigC (1.0 mol equivalent ZnSO4) 0.025-75 µM final, with GTP; enzyme mixture pre-incubated 10 min at 37 °C; 200 µM UMA, 1 mM D-glutamate, 1 mM ATP, 0.1 mg/mL BSA; 25 mM HEPES, 150 mM KCl, 2 mM MgCl2, 2 mM TCEP, pH 7.4, 37 °C; Ki fitted with the maximal inhibition fixed from a global fit
[2] = molecular target: MurD (A1S_0245), recombinant, purified (Acinetobacter baumannii); test: enzyme inhibition curve (HPLC assay of MurD activity); as a3 but apo MigC (no Zn) with GTP
[3] = molecular target: MurD (A1S_0245), recombinant, purified (Acinetobacter baumannii)
[4] = molecular target: MurD (A1S_0245), recombinant, purified (Acinetobacter baumannii); test: enzyme inhibition curve (HPLC assay of MurD activity); as a3 but apo MigC (no Zn) without GTP

MurD (A1S_0245), recombinant, purified (Acinetobacter baumannii), sequence (A3M1C6 whole entry): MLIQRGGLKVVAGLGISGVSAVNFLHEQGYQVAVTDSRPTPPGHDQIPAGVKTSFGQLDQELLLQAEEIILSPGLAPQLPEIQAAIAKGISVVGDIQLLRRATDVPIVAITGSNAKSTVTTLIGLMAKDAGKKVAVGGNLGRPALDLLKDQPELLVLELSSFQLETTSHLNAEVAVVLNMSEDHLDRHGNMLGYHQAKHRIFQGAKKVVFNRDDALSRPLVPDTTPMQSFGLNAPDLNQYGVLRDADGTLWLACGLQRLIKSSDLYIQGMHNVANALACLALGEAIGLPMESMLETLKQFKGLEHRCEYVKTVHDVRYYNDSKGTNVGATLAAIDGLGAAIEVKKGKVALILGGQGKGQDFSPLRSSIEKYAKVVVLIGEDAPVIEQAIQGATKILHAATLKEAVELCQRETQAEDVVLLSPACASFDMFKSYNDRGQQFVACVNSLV

Row | Ki [2] [µM] | maximal inhibition of MurD activity at saturating Zn-MigC (inhibition curves, 0.025-75 µM MigC, HPLC) [3] [%] | Ki [4] [µM] | Substance | Ki [1] [µM]
1 | – | – | – | E99A MigC, recombinant, purified (enzyme) | 21
2 | 43 | 75 | 20 | MigC (A1S_0934), recombinant, purified (enzyme) | 32
